In patent publication US20240368309A1 (Hoffmann-La Roche, published 2024):

Biological target: T1, biotinylated monovalent EpCAM-Fc (human EpCAM ECD-Fc knob avi-his paired with Fc hole) (human, UniProt P01857 104-328 = IgG part, biotin on the avi tag (BirA co-expression))
T1 construct: also called monovalent EpCAM-Fc construct; huEPCAM-Fc-knob (avi-His) + Fc hole (wt)
Test: SPR ProteOn XPR36 off-rate, biotinylated monovalent EpCAM-Fc on NLC chip, 50 nM supernatant

| Binder | koff [s⁻¹] |
| --- | --- |
| Monovalent EpCAM (GG02_VH x GG02_VL) (antibody, IgG1, V domains shown, one-armed hu IgG1 PG-LALA, VH/VL-crossed Fab on Fc hole plus empty Fc knob; from supernatant) VH: QVQLVQSGAEVKKPGASVKVSCKASGYTFTNYGMNWVRQAPGQRLEWMGWINTYTGESTYSQKFQGRVTITRDTSASTAYMELSSLRSEDTAVYFCARFAIKGDYWGQGTLVTVSS VL: DIVMTQSPDSLAVSLGERATINCKSSQSLLHSNGITYLYWYQQKPGQPPKLLIYQASTRESGVPDRFSGSGSGTDFTLTISSLQAEDVAVYYCAQNLEIPRTFGQGTKLEIK | 0.00227 |
| Monovalent EpCAM (GG02_VH x GG05_VL) (antibody, IgG1, V domains shown, one-armed hu IgG1 PG-LALA, VH/VL-crossed Fab on Fc hole plus empty Fc knob; from supernatant) VH: QVQLVQSGAEVKKPGASVKVSCKASGYTFTNYGMNWVRQAPGQRLEWMGWINTYTGESTYSQKFQGRVTITRDTSASTAYMELSSLRSEDTAVYFCARFAIKGDYWGQGTLVTVSS VL: DIVMTQSPLSLPVTPGEPASISCRSSQGINNYLYWYLQKPGQSPQLLIYQMSNRASGVPDRFSGSGSGTDFTLKISRVEAEDVGVYYCAQNLEIPRTFGQGTKLEIK | 0.00361 |
| Monovalent EpCAM (GG02_VH x GG07_VL) (antibody, IgG1, V domains shown, one-armed hu IgG1 PG-LALA, VH/VL-crossed Fab on Fc hole plus empty Fc knob; from supernatant) VH: QVQLVQSGAEVKKPGASVKVSCKASGYTFTNYGMNWVRQAPGQRLEWMGWINTYTGESTYSQKFQGRVTITRDTSASTAYMELSSLRSEDTAVYFCARFAIKGDYWGQGTLVTVSS VL: EIVLTQSPGTLSLSPGERATLSCRASQSINNYLYWYQQKPGQAPRLLIYQMSNRATGIPDRFSGSGSGTDFTLTISRLEPEDFAVYYCAQNLEIPRTFGQGTKLEIK | 0.00303 |
| Monovalent EpCAM (GG04_VH x GG02_VL) (antibody, IgG1, V domains shown, one-armed hu IgG1 PG-LALA, VH/VL-crossed Fab on Fc hole plus empty Fc knob; from supernatant) VH: EVQLVQSGAEVKKPGESLKISCKGSGYSFTNYGMNWVRQMPGKGLEWMGWINTYTGESTYSPSFQGQVTISADKSISTAYLQWSSLKASDTAMYFCARFAIKGDYWGQGTLVTVSS VL: DIVMTQSPDSLAVSLGERATINCKSSQSLLHSNGITYLYWYQQKPGQPPKLLIYQASTRESGVPDRFSGSGSGTDFTLTISSLQAEDVAVYYCAQNLEIPRTFGQGTKLEIK | 0.00943 |

The remaining lines, values ahead:

| koff [s⁻¹] | Binder |
| --- | --- |
| 0.00247 | Monovalent EpCAM (GG03_VH x GG04_VL) (antibody, IgG1, V domains shown, one-armed hu IgG1 PG-LALA, VH/VL-crossed Fab on Fc hole plus empty Fc knob; from supernatant) VH: QVQLVQSGAEVKKPGASVKVSCKASGYTFTNYGMNWVRQAPGQRLEWMGWINTYTGESTYSQKFQGRVTITLDTSASTAYMELSSLRSEDTAVYFCARFAIKGDYWGQGTLVTVSS VL: DIQMTQSPSSLSASVGDRVTITCRASQSISSYLYWYQQKPGKAPKLLIYQASSLQSGVPSRFSGSGSGTDFTLTISSLQPEDFATYYCAQNLEIPRTFGQGTKLEIK |
| 0.00255 | Monovalent EpCAM (GG03_VH x GG01_VL) (antibody, IgG1, V domains shown, one-armed hu IgG1 PG-LALA, VH/VL-crossed Fab on Fc hole plus empty Fc knob; from supernatant) VH: QVQLVQSGAEVKKPGASVKVSCKASGYTFTNYGMNWVRQAPGQRLEWMGWINTYTGESTYSQKFQGRVTITLDTSASTAYMELSSLRSEDTAVYFCARFAIKGDYWGQGTLVTVSS VL: DIVMTQSPLSLPVTPGEPASISCRSSQSLLHSNGITYLYWYLQKPGQSPQLLIYQMSNRASGVPDRFSGSGSGTDFTLKISRVEAEDVGVYYCAQNLEIPRTFGQGTKLEIK |
| 0.00483 | Monovalent EpCAM (GG03_VH x GG05_VL) (antibody, IgG1, V domains shown, one-armed hu IgG1 PG-LALA, VH/VL-crossed Fab on Fc hole plus empty Fc knob; from supernatant) VH: QVQLVQSGAEVKKPGASVKVSCKASGYTFTNYGMNWVRQAPGQRLEWMGWINTYTGESTYSQKFQGRVTITLDTSASTAYMELSSLRSEDTAVYFCARFAIKGDYWGQGTLVTVSS VL: DIVMTQSPLSLPVTPGEPASISCRSSQGINNYLYWYLQKPGQSPQLLIYQMSNRASGVPDRFSGSGSGTDFTLKISRVEAEDVGVYYCAQNLEIPRTFGQGTKLEIK |
| 0.00366 | Monovalent EpCAM (GG03_VH x GG07_VL) (antibody, IgG1, V domains shown, one-armed hu IgG1 PG-LALA, VH/VL-crossed Fab on Fc hole plus empty Fc knob; from supernatant) VH: QVQLVQSGAEVKKPGASVKVSCKASGYTFTNYGMNWVRQAPGQRLEWMGWINTYTGESTYSQKFQGRVTITLDTSASTAYMELSSLRSEDTAVYFCARFAIKGDYWGQGTLVTVSS VL: EIVLTQSPGTLSLSPGERATLSCRASQSINNYLYWYQQKPGQAPRLLIYQMSNRATGIPDRFSGSGSGTDFTLTISRLEPEDFAVYYCAQNLEIPRTFGQGTKLEIK |
| 0.00783 | Monovalent EpCAM (GG05_VH x GG02_VL) (antibody, IgG1, V domains shown, one-armed hu IgG1 PG-LALA, VH/VL-crossed Fab on Fc hole plus empty Fc knob; from supernatant) VH: EVQLVQSGAEVKKPGESLKISCKGSGYSFTQYGMNWVRQMPGKGLEWMGWINTYTGESTYSPSFQGQVTISADKSISTAYLQWSSLKASDTAMYFCARFAIKGDYWGQGTLVTVSS VL: DIVMTQSPDSLAVSLGERATINCKSSQSLLHSNGITYLYWYQQKPGQPPKLLIYQASTRESGVPDRFSGSGSGTDFTLTISSLQAEDVAVYYCAQNLEIPRTFGQGTKLEIK |
| 0.00301 | Monovalent EpCAM (GG03_VH x GG02_VL) (antibody, IgG1, V domains shown, one-armed hu IgG1 PG-LALA, VH/VL-crossed Fab on Fc hole plus empty Fc knob; from supernatant) VH: QVQLVQSGAEVKKPGASVKVSCKASGYTFTNYGMNWVRQAPGQRLEWMGWINTYTGESTYSQKFQGRVTITLDTSASTAYMELSSLRSEDTAVYFCARFAIKGDYWGQGTLVTVSS VL: DIVMTQSPDSLAVSLGERATINCKSSQSLLHSNGITYLYWYQQKPGQPPKLLIYQASTRESGVPDRFSGSGSGTDFTLTISSLQAEDVAVYYCAQNLEIPRTFGQGTKLEIK |
| 0.00662 | Monovalent EpCAM (GG04_VH x GG01_VL) (antibody, IgG1, V domains shown, one-armed hu IgG1 PG-LALA, VH/VL-crossed Fab on Fc hole plus empty Fc knob; from supernatant) VH: EVQLVQSGAEVKKPGESLKISCKGSGYSFTNYGMNWVRQMPGKGLEWMGWINTYTGESTYSPSFQGQVTISADKSISTAYLQWSSLKASDTAMYFCARFAIKGDYWGQGTLVTVSS VL: DIVMTQSPLSLPVTPGEPASISCRSSQSLLHSNGITYLYWYLQKPGQSPQLLIYQMSNRASGVPDRFSGSGSGTDFTLKISRVEAEDVGVYYCAQNLEIPRTFGQGTKLEIK |
